Results on eleven molecules are retold here after patent US20240270821A1, “GIP/GLP1/GCG TRI-RECEPTOR AGONISTS AND USES THEREOF” (priority 2023, published 2024).

Holding throughout (test): cell-based or functional assay
The target in experiment [1] is T1, human GIP receptor (human) (UniProt P48546).
T1 sequence (looked up): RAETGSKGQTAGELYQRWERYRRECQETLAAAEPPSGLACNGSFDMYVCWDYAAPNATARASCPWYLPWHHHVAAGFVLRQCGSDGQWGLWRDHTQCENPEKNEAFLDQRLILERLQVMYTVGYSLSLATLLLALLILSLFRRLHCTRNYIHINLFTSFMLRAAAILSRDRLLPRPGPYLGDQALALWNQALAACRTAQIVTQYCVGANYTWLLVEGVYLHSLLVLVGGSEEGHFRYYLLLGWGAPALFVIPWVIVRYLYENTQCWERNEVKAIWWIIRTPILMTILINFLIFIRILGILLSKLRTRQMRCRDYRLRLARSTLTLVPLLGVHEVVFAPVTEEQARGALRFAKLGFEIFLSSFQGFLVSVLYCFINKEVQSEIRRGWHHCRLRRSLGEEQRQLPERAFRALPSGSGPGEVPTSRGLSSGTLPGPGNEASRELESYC

The target in experiment [2] is hGLP-1R (Homo sapiens, UniProt P43220).
Experiment [3] deals with human glucagon receptor (human) (UniProt P47871).
Sequence of human glucagon receptor (human) (P47871 26-477): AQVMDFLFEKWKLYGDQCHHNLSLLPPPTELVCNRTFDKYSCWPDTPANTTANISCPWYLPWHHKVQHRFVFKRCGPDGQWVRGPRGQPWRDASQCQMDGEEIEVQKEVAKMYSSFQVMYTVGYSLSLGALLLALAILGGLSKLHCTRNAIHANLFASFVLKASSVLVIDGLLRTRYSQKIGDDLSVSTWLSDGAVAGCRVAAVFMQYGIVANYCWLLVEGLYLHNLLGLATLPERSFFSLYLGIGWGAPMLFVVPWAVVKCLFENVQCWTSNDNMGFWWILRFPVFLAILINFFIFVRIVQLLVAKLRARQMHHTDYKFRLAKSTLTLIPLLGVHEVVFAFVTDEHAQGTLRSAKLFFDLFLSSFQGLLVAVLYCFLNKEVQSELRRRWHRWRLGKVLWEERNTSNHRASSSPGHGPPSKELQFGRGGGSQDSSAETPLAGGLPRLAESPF

Sequence of hGLP-1R (P43220 24-463): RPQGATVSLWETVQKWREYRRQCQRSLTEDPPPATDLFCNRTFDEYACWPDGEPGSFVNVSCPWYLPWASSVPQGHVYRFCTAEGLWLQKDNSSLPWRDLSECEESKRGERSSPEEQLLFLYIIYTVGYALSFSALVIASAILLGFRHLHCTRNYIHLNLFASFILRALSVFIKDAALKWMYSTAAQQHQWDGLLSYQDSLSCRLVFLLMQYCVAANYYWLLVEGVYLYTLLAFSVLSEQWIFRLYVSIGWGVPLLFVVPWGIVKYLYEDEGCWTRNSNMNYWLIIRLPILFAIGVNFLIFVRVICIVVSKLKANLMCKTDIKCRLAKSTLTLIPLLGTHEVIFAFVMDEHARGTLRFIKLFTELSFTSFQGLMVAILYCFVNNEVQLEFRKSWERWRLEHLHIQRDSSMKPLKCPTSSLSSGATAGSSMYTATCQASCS

B1: Example 1087 (peptide)
chain: YXQGTFTSDXSQXLDKKAQXAFIEYLIAGGPSSGAPPPSGE
modifications: Aib, 4Pal, αMeL, Me4Pal; acylated lysine; amide; synthetic construct; SITE 2: note = 2-Aminoisobutyric Acid; SITE 10: note = 3-(4-Pyridyl)-L-alanine; SITE 13: note = alpha-methyl-leucine; SITE 17: note = Lysine is chemically modified through conjugation of the epsilon-amino group of the Lysine side chain with (Glu)2-(gamma-Glu)-CO-(CH2)16-CO2H; SI
Turning to B1, the Relative cAMP EC50 was found to be 0.207 nM in experiment [1], 2.63 nM in experiment [2] and 15.4 nM in experiment [3]. Also, the cAMP Rel EC50 (1% HSA) in experiment [1] is 23.3 nM; in experiment [2], 439 nM; in experiment [3] it was 2460 nM.

B2: Example 104 (peptide)
chain: YXQGTFTSDFSXXLDKKAQXAFIEWLLEGGXSSGAPPPSGE
modifications: synthetic construct; SITE 2: note = 2-Aminoisobutyric Acid; SITE 12: note = L-ornithine; SITE 13: note = alpha-methyl-leucine; SITE 17: note = Lysine is chemically modified through conjugation of the epsilon-amino group of the Lysine side chain with (2-[2-(2-Amino-ethoxy)-ethoxy]-acetyl)-(gamma-Glu)
For B2, the Relative cAMP EC50 in experiment [1] amounted to 0.251 nM; in experiment [2], 3.39 nM; in experiment [3], 7.58 nM. Moreover, the cAMP Rel EC50, nM (in the presence of 1% HSA) was 97.5 nM in experiment [1], 698 nM in experiment [2] and 1260 nM in experiment [3].

B3: Example 1068 (peptide)
chain: YXQGTFTSDXSXXLDXKAQXAFIEYLLAGGPSSGAPPPSGSEE
modifications: C-terminal amide; lysine acylated with (γ-Glu)2-C18 diacid; synthetic construct; SITE 2: note = 2-Aminoisobutyric Acid; SITE 10: note = 3-(4-Pyridyl)-L-alanine; SITE 12: note = L-ornithine; SITE 13: note = alpha-methyl-leucine; SITE 16: note = L-ornithine; SITE 17: note = Lysine is chemically modified through conjugation of the epsilon-amino group of the Lys
With B3, the Relative cAMP EC50 stood at 0.211 nM in experiment [1], 11.6 nM in experiment [2] and 4.8 nM in experiment [3]. Also, the cAMP Rel EC50 (1% HSA) in experiment [1] stood at 20.2 nM; in experiment [2], 1330 nM; in experiment [3], 295 nM.

B4: Example 1070 (peptide)
chain: YXQGTFTSDXSQXLDXKAQXAFIEXLIEGGPSSGAPPPSGSEE
modifications: Aib, 4Pal, αMeL, Orn, Me4Pal, αMeY; acylated Lys; C-terminal amide; synthetic construct; SITE 2: note = 2-Aminoisobutyric Acid; SITE 10: note = 3-(4-Pyridyl)-L-alanine; SITE 13: note = alpha-methyl-leucine; SITE 16: note = L-ornithine; SITE 17: note = Lysine is chemically modified through conjugation of the epsilon-amino group of the Lysine side chain with D-Glutami
As for B4, the Relative cAMP EC50 in experiment [1] amounted to 0.167 nM; in experiment [2], 1.54 nM; in experiment [3], 20.2 nM. Further, the figures for the cAMP Rel EC50 (1% HSA) in experiment [1], in experiment [2] and in experiment [3] were 27.3 nM, 321 nM and 1940 nM, respectively.

B5: Example 1072 (peptide)
chain: YXQGTFTSDXSQXLDXKAQXAFIQXLIEGGPSSGAPPPSGSEE
modifications: Aib, 4Pal, αMeL, Orn, Me4Pal, αMeY; acylated Lys; C-terminal amide; synthetic construct; SITE 2: note = 2-Aminoisobutyric Acid; SITE 10: note = 3-(4-Pyridyl)-L-alanine; SITE 13: note = alpha-methyl-leucine; SITE 16: note = L-ornithine; SITE 17: note = Lysine is chemically modified through conjugation of the epsilon-amino group of the Lysine side chain with D-Glutami
Turning to B5, the figures for the Relative cAMP EC50 in experiment [1], in experiment [2] and in experiment [3] were 0.157 nM, 0.889 nM and 10.5 nM, respectively. The results for the cAMP Rel EC50 (1% HSA) in experiment [1], in experiment [2] and in experiment [3] were 9.94 nM, 95.1 nM and 914 nM, respectively.

B6: Example 1091 (peptide)
chain: YXQGTFTSDXSQXLDXKAQXAFIEYLIAXGPSSGAPPPSGSEE
modifications: non-natural residues; acylated Lys C18 diacid; C-term amide; synthetic construct; SITE 2: note = 2-Aminoisobutyric Acid; SITE 10: note = 3-(4-Pyridyl)-L-alanine; SITE 13: note = alpha-methyl-leucine; SITE 16: note = L-ornithine; SITE 17: note = Lysine is chemically modified through conjugation of the epsilon-amino group of the Lysine side chain with (gamma-Gl)
On to B6, for which the Relative cAMP EC50 in experiment [1] is 0.0592 nM; in experiment [2] it was 1.23 nM; in experiment [3] it was 4.67 nM. The cAMP Rel EC50 (1% HSA) in experiment [1] was 5.79 nM; in experiment [2], 145 nM; in experiment [3], 550 nM.

B7: Example 1090 (peptide)
chain: YXQGTFTSDXSQXLDKKAQXAFIEYLIAGGPSSGAPPPSGEEE
modifications: acylated Lys, C-terminal amide, non-natural residues; synthetic construct; SITE 2: note = 2-Aminoisobutyric Acid; SITE 10: note = 3-(4-Pyridyl)-L-alanine; SITE 13: note = alpha-methyl-leucine; SITE 17: note = Lysine is chemically modified through conjugation of the epsilon-amino group of the Lysine side chain with (Glu)2-(gamma-Glu)-CO-(CH2)16-CO2H; SI
B7: the Relative cAMP EC50 in experiment [1] turned out to be 0.272 nM; in experiment [2], 5.44 nM; in experiment [3], 15.6 nM. Further, the cAMP Rel EC50 (1% HSA) in experiment [1] was 27.3 nM; in experiment [2] it was 619 nM; in experiment [3] it was 2010 nM.

B8: Example 1088 (peptide)
chain: YXQGTFTSDXSQXLDKKAQXAFIEYLIAGGPSSGAPPPSGEEE
modifications: Aib, 4Pal, αMeL, Me4Pal, acylated K, C-terminal amide; synthetic construct; SITE 2: note = 2-Aminoisobutyric Acid; SITE 10: note = 3-(4-Pyridyl)-L-alanine; SITE 13: note = alpha-methyl-leucine; SITE 17: note = Lysine is chemically modified through conjugation of the epsilon-amino group of the Lysine side chain with D-Glutamic acid-(gamma-Glu)-CO-(CH2)16
As for B8, the Relative cAMP EC50 was 0.182 nM in experiment [1], 2.99 nM in experiment [2] and 14.8 nM in experiment [3]. In addition, the cAMP Rel EC50 (1% HSA) was found to be 15.6 nM in experiment [1], 367 nM in experiment [2] and 1710 nM in experiment [3].

B9: Example 1089 (peptide)
chain: YXQGTFTSDXSQXLDKKAQXAFIEYLIAGGPSSGAPPPSGEEE
modifications: non-natural residues; acylated Lys; C-terminal amide; synthetic construct; SITE 2: note = 2-Aminoisobutyric Acid; SITE 10: note = 3-(4-Pyridyl)-L-alanine; SITE 13: note = alpha-methyl-leucine; SITE 17: note = Lysine is chemically modified through conjugation of the epsilon-amino group of the Lysine side chain with (Glu)-(gamma-Glu)-CO-(CH2)16-CO2H; SIT
As for B9, the Relative cAMP EC50 is 0.213 nM in experiment [1], 2.96 nM in experiment [2] and 14 nM in experiment [3]. Also, the cAMP Rel EC50 (1% HSA) in experiment [1] is 34.6 nM; in experiment [2], 449 nM; in experiment [3], 2580 nM.

B10: Example 1069 (peptide)
chain: YXQGTFTSDXSXXLDXKAQXAFIEYLLAGGPSSGAPPPSGSEE
modifications: non-natural residues; acylated Lys; C-terminal amide; synthetic construct; SITE 2: note = 2-Aminoisobutyric Acid; SITE 10: note = 3-(4-Pyridyl)-L-alanine; SITE 12: note = L-ornithine; SITE 13: note = alpha-methyl-leucine; SITE 16: note = L-ornithine; SITE 17: note = Lysine is chemically modified through conjugation of the epsilon-amino group of the Lys
Consider B10, for which the Relative cAMP EC50 in experiment [1] is 0.417 nM; in experiment [2], 8.87 nM; in experiment [3], 21.2 nM. Also, the figures for the cAMP Rel EC50 (1% HSA) in experiment [1], in experiment [2] and in experiment [3] were 39.5 nM, 1290 nM and 2160 nM, respectively.

B11: Example 1074 (peptide)
chain: YXQGTFTSDXSQXLDXKAQXAFIEXLIAGGPSSGAPPPSGSEE
modifications: non-natural residues; C18 diacid-γ-Glu acyl on Lys; C-terminal amide; synthetic construct; SITE 2: note = 2-Aminoisobutyric Acid; SITE 10: note = 3-(4-Pyridyl)-L-alanine; SITE 13: note = alpha-methyl-leucine; SITE 16: note = L-ornithine; SITE 17: note = Lysine is chemically modified through conjugation of the epsilon-amino group of the Lysine side chain with D-Glutami
Consider B11, for which the Relative cAMP EC50 in experiment [1] worked out at 0.0745 nM; in experiment [2] it was 0.794 nM; in experiment [3] it was 22.8 nM. For the same molecule, the cAMP Rel EC50 (1% HSA) in experiment [1] came to 8.49 nM; in experiment [2], 101 nM; in experiment [3], 1990 nM.
